Where a chain is given by its changes, count along the chain named.
B1: S1-R3-T1-C4 (Ab_8) scFv-Fc (scFv, V domains shown)
VH: QVQLVQSGAEVKKPGSSVKVSCKASGGTFSSYAISWLRQAPGQGLEWMGWINPNSGGTNYAQKFQGRVTMTRDTSISTAYMELSRLRSDDTAVYYCARGSGGYYLGWGQGTLVTVSS
VL: QPGLTQPPSVSKGLRQTATLTCTGNSNNVGNQGAAWLQQHQGHPPKLLSYMNNNRPPGISERFSASRSGNTASLTITGLQPEDEADYYCSAWDSSLSRWVFGGGTKLSVL
B2: Ab_14 scFv-Fc (scFv, V domains shown)
VH: QVQLQQSGPGLVKPSQTLSLTCAISGDSVSSNSAAWNWIRQSPARGLEWLGRTYYRSRWYNDYAISMKSRITINPDTSKNQFSLQLESVTPEDTAVYYCAREIRGFDYWGQGTLVTVSS
VL: QSVLTQPPSASGSPGQSVTISCTGTSSDVGAYNFVSWYQHHPGKAPKLIIYDFNKRPSGVPDRFSGSKSGNTASLTVSGLQADDEADYYCSSYAGSNNFDVVFGGGTKLTVL
B3: Ab_17 scFv-Fc (scFv, V domains shown)
VH: QVQLVQSGGGVVQPGRSLRLSCAASGFTFDDYAMHWVRQVPGKGLEWVSGIDWNSGVIGYADSVKGRFTISRDNVKNSLYLQMNSLRTEDSALYYCAKDIGPGGSGSYYAFDIWGQGTTVTVSS
VL: QSALTQPASVSGSPGQSITISCTGTSSDVGGSKYVSWYQQHPGKAPKVMIYDVTKRPSGVPDRFSGSKSGNTASLTISGLQAEDEADYYCAAWDDSLNGVVFGGGTKLTVL
B4: S1-RBD-R3-T1-F5 (Ab2-7) scFv-Fc (scFv, V domains shown)
VH: QVTLKESGPTRVKPTQTLTLTCTFSGFSLSTTGVGVGWIRQPPGKALEWLALIYWNDDKRYSPSLKSRLTITKDTSKNQVVLTMTNMDPVDTATYYCARISGSGYFYPFDIWGQGTTVTVSS
VL: NFMLTQPHSVSESPGKTVTISCTRSSGSIASNYVQWYQQRPGSSPTTVIYEDNQRPSGVPDRFSGSIDSSSNSASLTISGLKAEDEADYYCQSYDSSSLWVFGGGTKLTVL
B5: Ab_13 scFv-Fc (scFv, V domains shown)
VH: B4 VH with T10K, R11L, T32S, N56D, T72A, N78Y, T117M, S122A
VL: B4 VL with S44A, A83T, S98N
B6: Ab_16 scFv-Fc (scFv, V domains shown)
VH: QVQLVQSGGGVVQPGRSLRLSCAASGFTFSNYGMHWVRQAPGKGLEWVALIWERGSKKDYADSVKGRFTVSRDNSKNTLYLQMNSLRPEDTAVYFCAREGISMTGAEYFQHWGQGTLVTVSS
VL: QSVLTQPPSVSGSPGQRVTMSCTGSSSNIGAGYDVHWYQQVPGAAPRLLIYGTNNRPSGVPDRFSGSKSGTSASLTITGLQAEDEADYYCQSYDNSLTDPYVFGTGTKVTVL
B7: Ab_18 scFv-Fc (scFv, V domains shown)
VH: EVQLVQSGGGVVQPGRSLRVSCAASGFSFSRYGMHWVRQAPGKGLEWVAFIRHDGSKKYYADSVEGRFTISRDNSRNTVSLEMNSLRGEDTAVYYCAKDGRLEAALDDWGQGTLVTVSS
VL: NFMLTQPHSMSGSAGKTVTVSCIRSSGSIANNFVQWYQQRPGSAPTTVIYEDNQRPSGVPDRFSGSIDSSSNSASLTISGLKTEDEADYYCQSYDSSNLVFGGGTRLTVL

molecular target: B.1.1.7 Spike (SARS-CoV2)

Binder | Kd [pM] | Response
B1 | 2.29 | 0.202
B2 | 7.98 | 0.355
B3 | 1.85 | 0.331
B4 | 379 | 0.127
B5 | 1.91 | 0.113
B6 | 2.36 | 0.388
B7 | 9.28 | 0.256

molecular target: B.1.351 Spike (SARS-CoV2)

Binder | Kd [pM] | Response
B1 | 1090 | 0.0872
B2 | 3.1 | 0.253
B3 | 562 | 0.199
B4 | 360 | 0.13
B5 | 735 | 0.103
B6 | < 1 | 0.405
B7 | 1340 | 0.12

molecular target: P.1 Spike (SARS-CoV2)

Binder | Kd [pM] | Response
B1 | 10.6 | 0.0784
B2 | 9.75 | 0.27
B3 | 8 | 0.177
B4 | 7.04 | 0.152
B5 | 4.88 | 0.112
B6 | 7.93 | 0.35
B7 | 2.97 | 0.109

Source: patent US20240409617A1
